Reference: article PMC12412624, “Engineered Cas12j‐8 is a Versatile Platform for Multiplexed Genome Modulation in Mammalian Cells”
Substitutions are numbered along the chain they refer to.

How the values were obtained:
Settings in all cases: HEK293T cells; panel 1c (compare within a panel only); scale: mean GFP / mean GFP of wild type, printed, no background subtraction
[1] = system: T1, dCas12j-8 E258R E258R;D369A;E567A;D658A (bacteriophage (metagenome))
T1 sequence: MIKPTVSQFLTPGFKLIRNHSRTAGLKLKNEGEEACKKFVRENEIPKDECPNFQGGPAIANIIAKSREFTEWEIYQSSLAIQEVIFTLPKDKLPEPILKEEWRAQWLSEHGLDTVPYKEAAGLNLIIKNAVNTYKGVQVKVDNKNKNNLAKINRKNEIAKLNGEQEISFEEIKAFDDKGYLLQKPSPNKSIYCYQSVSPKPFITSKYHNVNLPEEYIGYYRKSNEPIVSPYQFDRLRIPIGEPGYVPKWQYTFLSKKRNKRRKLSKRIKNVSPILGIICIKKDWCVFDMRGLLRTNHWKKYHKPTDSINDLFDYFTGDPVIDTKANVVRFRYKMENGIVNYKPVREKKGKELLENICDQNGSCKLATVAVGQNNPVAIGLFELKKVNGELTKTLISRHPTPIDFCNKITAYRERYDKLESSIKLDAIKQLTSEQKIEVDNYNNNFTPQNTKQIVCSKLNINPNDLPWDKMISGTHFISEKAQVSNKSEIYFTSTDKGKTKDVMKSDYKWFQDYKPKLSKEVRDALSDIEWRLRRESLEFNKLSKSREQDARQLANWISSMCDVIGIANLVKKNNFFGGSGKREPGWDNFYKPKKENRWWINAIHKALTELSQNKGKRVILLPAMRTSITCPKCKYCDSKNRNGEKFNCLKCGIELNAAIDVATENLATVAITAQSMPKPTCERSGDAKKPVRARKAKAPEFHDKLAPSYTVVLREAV

[2] = system: T2, dCas12j-8 E609R E609R;D369A;E567A;D658A (bacteriophage (metagenome))
T2 sequence: T1 sequence with R258E, E609R

[3] = system: T3, dCas12j-8 E157R E157R;D369A;E567A;D658A (bacteriophage (metagenome))
T3 sequence: T1 sequence with E157R, R258E

[4] = system: T4, dCas12j-8 E31R E31R;D369A;E567A;D658A (bacteriophage (metagenome))
T4 sequence: T1 sequence with E31R, R258E

Sequence: CUUUCAAGACUAAUAGAUUGCUCCUUACGAGGAGACACUCCCUAUCAGUGAUAGAG / TTNACTCCCTATCAGTGATAGAG / CTCTATCACTGATAGGGAGTNAA [TetO]
- binding signal [1]: 1.68
- binding signal [2]: 0.336
- binding signal [3]: 1.39
- binding signal [4]: 0.82
